Legend:
[1] = system: ZFP7264 (host, center linker TGSQKP) (artificial); experiment: ELONA
[2] = system: ZFP7264 linker 1e center linker F2-F3 TGSQKP replaced by TVPRPTPPKP (artificial); experiment: ELONA; conditions: normalized ELISA score
[3] = system: ZFP7264 linker LRQKDERP center linker F2-F3 TGSQKP replaced by LRQKDERP (artificial); experiment: ELONA; conditions: normalized ELISA score
[4] = system: ZFP7264 linker TGEGGKP center linker F2-F3 TGSQKP replaced by TGEGGKP (artificial); experiment: ELONA; conditions: normalized ELISA score
[5] = system: ZFP7264 linker TGGGGSQKP center linker F2-F3 TGSQKP replaced by TGGGGSQKP (artificial); experiment: ELONA; conditions: normalized ELISA score
[6] = system: ZFP7264 linker TGLPKPKP center linker F2-F3 TGSQKP replaced by TGLPKPKP (artificial); experiment: ELONA; conditions: normalized ELISA score
[7] = system: ZFP7264 linker TKHGTPKHREDKP center linker F2-F3 TGSQKP replaced by TKHGTPKHREDKP (artificial); experiment: ELONA; conditions: normalized ELISA score
[8] = system: ZFP7264 linker TLPLPRPKP center linker F2-F3 TGSQKP replaced by TLPLPRPKP (artificial); experiment: ELONA; conditions: normalized ELISA score
[9] = system: ZFP7264 linker TLPPCFRPKP center linker F2-F3 TGSQKP replaced by TLPPCFRPKP (artificial); experiment: ELONA; conditions: normalized ELISA score
[10] = system: ZFP7264 linker TSRPRPKP center linker F2-F3 TGSQKP replaced by TSRPRPKP (artificial); experiment: ELONA; conditions: normalized ELISA score
[11] = system: ZFN7263 (host) (artificial); experiment: cell_activity
[12] = system: ZFN7263 linker TGGGGSQKP center linker F2-F3 TGSQKP replaced by TGGGGSQKP (artificial); experiment: cell_activity; conditions: normalized yeast MEL-1 score
[13] = system: ZFN7263 linker TPLCQRPMKQKP (artificial); experiment: cell_activity; conditions: yeast, paired with 7264 ZFN
[14] = system: ZFN7263 linker TPNRCPPTKP (artificial); experiment: cell_activity; conditions: yeast, paired with 7264 ZFN
[15] = system: ZFN7263 linker TPRPPIPKP center linker F2-F3 TGSQKP replaced by TPRPPIPKP (artificial); experiment: cell_activity; conditions: normalized yeast MEL-1 score
[16] = system: ZFN7263 linker TQRPQIPPKP (artificial); experiment: cell_activity; conditions: yeast, paired with 7264 ZFN
[17] = system: ZFN7263 linker TYPRPLLAKP (artificial); experiment: cell_activity; conditions: yeast, paired with 7264 ZFN
[18] = system: ZFP8196 (host, center linker TGEKP) (artificial); experiment: ELONA; conditions: normalized ELISA score
[19] = system: ZFP8196 linker 1c center linker F2-F3 TGEKP replaced by THPRAPIPKP (artificial); experiment: ELONA; conditions: normalized ELISA score
[20] = system: ZFP8196 linker 1d center linker F2-F3 TGEKP replaced by TPNRRPAPKP (artificial); experiment: ELONA; conditions: normalized ELISA score
[21] = system: ZFP8196 linker 1f center linker F2-F3 TGEKP replaced by TYPRPIAAKP (artificial); experiment: ELONA; conditions: normalized ELISA score
[22] = system: ZFP8196 linker LRQKDERP (artificial)
[23] = system: ZFP8196 linker TCPRPPTRKP (artificial)
[24] = system: ZFP8196 linker TEPRAKPPKP (artificial)
[25] = system: ZFP8196 linker TGEGGKP (artificial)
[26] = system: ZFP8196 linker TGGGGSQKP (artificial)
[27] = system: ZFP8196 linker TGYSIPRPKP (artificial)
[28] = system: ZFP8196 linker TPDAPKPKP (artificial)
[29] = system: ZFP8196 linker TPDRPISTCKP (artificial)
[30] = system: ZFP8196 linker TPGLHRPKP (artificial)
[31] = system: ZFP8196 linker TPSHTPRPKP (artificial)
[32] = system: ZFP8196 linker TSPRLPAPKP (artificial)
[33] = system: ZFP8196 linker TSSPRSNAKP (artificial)
[34] = system: ZFP8196 linker TVSPAPCRSKP (artificial)
[35] = system: ZFP7263 (host, center linker TGSQKP) (artificial); experiment: ELONA
[36] = system: ZFP7263 linker TQRPQIPPKP center linker F2-F3 TGSQKP replaced by TQRPQIPPKP (artificial); experiment: ELONA; conditions: normalized ELISA score
[37] = system: ZFP7263 linker TYPRPLLAKP center linker F2-F3 TGSQKP replaced by TYPRPLLAKP (artificial); experiment: ELONA; conditions: normalized ELISA score
[38] = system: ZFP7263 linker LRQKDERP (artificial)
[39] = system: ZFP7263 linker TGEGGKP (artificial)
[40] = system: ZFP7263 linker TGGGGSQKP (artificial)
[41] = system: ZFP7263 linker TPLCQRPMKQKP (artificial)
[42] = system: ZFP7263 linker TPNRCPPTKP (artificial)
[43] = system: ZFP7263 linker TPRPPIPKP (artificial)
[44] = system: ZFP8196 linker LRQKDERP center linker F2-F3 TGEKP replaced by LRQKDERP (artificial); experiment: ELONA; conditions: normalized ELISA score
[45] = system: ZFP8196 linker TCPRPPTRKP center linker F2-F3 TGEKP replaced by TCPRPPTRKP (artificial); experiment: ELONA; conditions: normalized ELISA score
[46] = system: ZFP8196 linker TEPRAKPPKP center linker F2-F3 TGEKP replaced by TEPRAKPPKP (artificial); experiment: ELONA; conditions: normalized ELISA score
[47] = system: ZFP8196 linker TGEGGKP center linker F2-F3 TGEKP replaced by TGEGGKP (artificial); experiment: ELONA; conditions: normalized ELISA score
[48] = system: ZFP8196 linker TGGGGSQKP center linker F2-F3 TGEKP replaced by TGGGGSQKP (artificial); experiment: ELONA; conditions: normalized ELISA score
[49] = system: ZFP8196 linker TGYSIPRPKP center linker F2-F3 TGEKP replaced by TGYSIPRPKP (artificial); experiment: ELONA; conditions: normalized ELISA score
[50] = system: ZFP8196 linker TPDAPKPKP center linker F2-F3 TGEKP replaced by TPDAPKPKP (artificial); experiment: ELONA; conditions: normalized ELISA score
[51] = system: ZFP8196 linker TPDRPISTCKP center linker F2-F3 TGEKP replaced by TPDRPISTCKP (artificial); experiment: ELONA; conditions: normalized ELISA score
[52] = system: ZFP8196 linker TPGLHRPKP center linker F2-F3 TGEKP replaced by TPGLHRPKP (artificial); experiment: ELONA; conditions: normalized ELISA score
[53] = system: ZFP8196 linker TPSHTPRPKP center linker F2-F3 TGEKP replaced by TPSHTPRPKP (artificial); experiment: ELONA; conditions: normalized ELISA score
[54] = system: ZFP8196 linker TSPRLPAPKP center linker F2-F3 TGEKP replaced by TSPRLPAPKP (artificial); experiment: ELONA; conditions: normalized ELISA score
[55] = system: ZFP8196 linker TSSPRSNAKP center linker F2-F3 TGEKP replaced by TSSPRSNAKP (artificial); experiment: ELONA; conditions: normalized ELISA score
[56] = system: ZFP8196 linker TVSPAPCRSKP center linker F2-F3 TGEKP replaced by TVSPAPCRSKP (artificial); experiment: ELONA; conditions: normalized ELISA score
[57] = system: ZFP7263 linker LRQKDERP center linker F2-F3 TGSQKP replaced by LRQKDERP (artificial); experiment: ELONA; conditions: normalized ELISA score
[58] = system: ZFP7263 linker TGEGGKP center linker F2-F3 TGSQKP replaced by TGEGGKP (artificial); experiment: ELONA; conditions: normalized ELISA score
[59] = system: ZFP7263 linker TGGGGSQKP center linker F2-F3 TGSQKP replaced by TGGGGSQKP (artificial); experiment: ELONA; conditions: normalized ELISA score
[60] = system: ZFP7263 linker TPLCQRPMKQKP center linker F2-F3 TGSQKP replaced by TPLCQRPMKQKP (artificial); experiment: ELONA; conditions: normalized ELISA score
[61] = system: ZFP7263 linker TPNRCPPTKP center linker F2-F3 TGSQKP replaced by TPNRCPPTKP (artificial); experiment: ELONA; conditions: normalized ELISA score
[62] = system: ZFP7263 linker TPRPPIPKP center linker F2-F3 TGSQKP replaced by TPRPPIPKP (artificial); experiment: ELONA; conditions: normalized ELISA score
[63] = system: ZFP7264 linker LRQKDERP (artificial)
[64] = system: ZFP7264 linker TGEGGKP (artificial)
[65] = system: ZFP7264 linker TGGGGSQKP (artificial)
[66] = system: ZFP7264 linker TGLPKPKP (artificial)
[67] = system: ZFP7264 linker TKHGTPKHREDKP (artificial)
[68] = system: ZFP7264 linker TLPLPRPKP (artificial)
[69] = system: ZFP7264 linker TLPPCFRPKP (artificial)
[70] = system: ZFP7264 linker TSRPRPKP (artificial)
[71] = ELISA normalized to host on 0-bp gap target (reference)

TTAGTTAAAGCGGCTCCGAATATC (double strand) [7264 target 0-bp gap]
binding signal [1, 71]: 1
binding signal [2]: 0.16
binding signal [3]: 0.26
binding signal [4]: 1.39
binding signal [5]: 0.46
binding signal [6]: 0.14
binding signal [7]: 0.01
binding signal [8]: 0.25
binding signal [9]: 0.36
binding signal [10]: 0.18

ACTCTGTGGAAG (double strand) [7263 yeast half-site 0-bp gap]
activity ([11]; yeast MEL-1 score, with invariant 7264 ZFN partner (reference)): 1
activity [12]: 0.11
activity (normalized MEL-1) [13]: 0.04
activity (normalized MEL-1) [14]: 0.05
activity [15]: 0.04
activity (normalized MEL-1) [16]: 0.04
activity (normalized MEL-1) [17]: 0.05

TTAGATAAACTGTCCAAAAGGCTATC (double strand) [8196 target gap TC]
binding signal [18]: 0
binding signal [19]: 0.01
binding signal [20]: 0.01
binding signal [21]: 0.01
binding signal (normalized ELISA) [22]: 0
binding signal (normalized ELISA) [23]: 0.01
binding signal (normalized ELISA) [24]: 0.02
binding signal (normalized ELISA) [25]: 0
binding signal (normalized ELISA) [26]: 0
binding signal (normalized ELISA) [27]: 0.01
binding signal (normalized ELISA) [28]: 0.01
binding signal (normalized ELISA) [29]: 0.03
binding signal (normalized ELISA) [30]: 0.01
binding signal (normalized ELISA) [31]: 0.02
binding signal (normalized ELISA) [32]: 0.01
binding signal (normalized ELISA) [33]: 0.01
binding signal (normalized ELISA) [34]: 0.02

TTAGCCACTCTGACTGGAAGTGTATC (double strand) [7263 target gap AC]
binding signal ([35]; normalized ELISA score): 0.01
binding signal [36]: 0.03
binding signal [37]: 0.03
binding signal (normalized ELISA) [38]: 0.01
binding signal (normalized ELISA) [39]: 0.01
binding signal (normalized ELISA) [40]: 0.01
binding signal (normalized ELISA) [41]: 0.08
binding signal (normalized ELISA) [42]: 0.03
binding signal (normalized ELISA) [43]: 0.02

TTAGATAAACTGTCAAAAGGCTATC (double strand) [8196 target gap T]
binding signal [18]: 0.01
binding signal [19]: 0.6
binding signal [20]: 0.52
binding signal [21]: 0.64
binding signal [44]: 0.08
binding signal [45]: 0.62
binding signal [46]: 0.93
binding signal [47]: 0.03
binding signal [48]: 0
binding signal [49]: 0.55
binding signal [50]: 0.95
binding signal [51]: 0.47
binding signal [52]: 0.81
binding signal [53]: 0.8
binding signal [54]: 0.81
binding signal [55]: 0.25
binding signal [56]: 0.19

TTAGCCACTCTGTTGGAAGTGTATC (double strand) [7263 target gap T]
binding signal ([35]; normalized ELISA score): 0.02
binding signal [57]: 0.13
binding signal [58]: 0.04
binding signal [59]: 0.39
binding signal [60]: 4
binding signal [61]: 3.16
binding signal [62]: 2.09
binding signal [36]: 3.05
binding signal [37]: 3.97

TTAGTTAAAGCGTTGCTCCGAATATC (double strand) [7264 target gap TT]
binding signal ([1]; normalized ELISA score): 0
binding signal [2]: 0.05
binding signal (normalized ELISA) [63]: 0.02
binding signal (normalized ELISA) [64]: 0.03
binding signal (normalized ELISA) [65]: 0.03
binding signal (normalized ELISA) [66]: 0.03
binding signal (normalized ELISA) [67]: 0
binding signal (normalized ELISA) [68]: 0.04
binding signal (normalized ELISA) [69]: 0.06
binding signal (normalized ELISA) [70]: 0.03

ACTCTGTTGGAAG (double strand) [7263 yeast half-site gap T]
activity ([11]; normalized yeast MEL-1 score): 0.06
activity [12]: 0.31
activity (normalized MEL-1) [13]: 1.19
activity (normalized MEL-1) [14]: 1.59
activity [15]: 1.4
activity (normalized MEL-1) [16]: 1.19
activity (normalized MEL-1) [17]: 1.06

TTAGCCACTCTGTGGAAGTGTATC (double strand) [7263 target 0-bp gap]
binding signal [35, 71]: 1
binding signal [57]: 0.25
binding signal [58]: 1.3
binding signal [59]: 0.51
binding signal [60]: 0.28
binding signal [61]: 0.31
binding signal [62]: 0.14
binding signal [36]: 0.15
binding signal [37]: 0.29

TTAGTTAAAGCGTGCTCCGAATATC (double strand) [7264 target gap T]
binding signal ([1]; normalized ELISA score): 0
binding signal [2]: 2.55
binding signal [3]: 0.1
binding signal [4]: 0.08
binding signal [5]: 0.17
binding signal [6]: 0.86
binding signal [7]: 0.01
binding signal [8]: 1.36
binding signal [9]: 2.72
binding signal [10]: 2.07
